The target of assay [1] is T1, human DLL3 (hDLL3) expressed on tumor cells (human, UniProt Q9NYJ7 27-618).
T1 sequence (looked up): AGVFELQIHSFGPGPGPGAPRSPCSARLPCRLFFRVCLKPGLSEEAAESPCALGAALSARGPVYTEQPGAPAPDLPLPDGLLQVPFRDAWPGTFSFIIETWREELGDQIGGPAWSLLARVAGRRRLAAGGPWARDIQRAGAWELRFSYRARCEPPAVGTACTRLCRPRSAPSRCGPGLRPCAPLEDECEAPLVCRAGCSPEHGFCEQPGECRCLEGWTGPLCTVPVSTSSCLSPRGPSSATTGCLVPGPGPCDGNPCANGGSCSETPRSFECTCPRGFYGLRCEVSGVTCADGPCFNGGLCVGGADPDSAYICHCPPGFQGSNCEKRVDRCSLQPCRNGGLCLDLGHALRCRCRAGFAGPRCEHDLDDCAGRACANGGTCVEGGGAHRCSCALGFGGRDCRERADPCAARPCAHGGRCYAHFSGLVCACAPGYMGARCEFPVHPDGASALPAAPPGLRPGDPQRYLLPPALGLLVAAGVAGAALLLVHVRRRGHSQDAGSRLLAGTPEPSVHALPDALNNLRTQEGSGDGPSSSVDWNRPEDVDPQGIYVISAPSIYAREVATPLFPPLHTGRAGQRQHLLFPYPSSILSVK
Briefly: cell-based or functional assay.

In assay [2] the target is T1, human DLL3 (hDLL3) expressed on tumor …. Briefly: flow cytometry (FACS) on SHP-77 cells expressing hDLL3.
For assay [3], the target named is T2, human CD3 (hCD3) naturally expressed on Jurkat cells (human, UniProt P07766 23-207).
T2 construct: whole, on cells; on the cells it is part of the whole TCR/CD3 complex; also called Jurkat cell line
T2 sequence (P07766 23-207): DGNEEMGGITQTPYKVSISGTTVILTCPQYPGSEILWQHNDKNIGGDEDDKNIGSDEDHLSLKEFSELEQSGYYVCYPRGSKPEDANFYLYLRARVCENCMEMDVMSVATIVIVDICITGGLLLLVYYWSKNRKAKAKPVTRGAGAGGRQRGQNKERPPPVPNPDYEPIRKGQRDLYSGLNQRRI
Briefly: flow cytometry (FACS) on Jurkat cells naturally expressing hCD3.

Assay [4] concerns the target human CD3 (purchased from Acro, Cat. No. CDD-H52W1) (human, UniProt P07766 23-126). Briefly: SPR (Biacore 8K), CD3 immobilised directly on CM5, bispecific as analyte, 1:1 Langmuir fit.
The target in assay [5] is T3, cynomolgus CD3 (purchased from Acro, Cat. No. CDD-C52W4) (cynomolgus, UniProt Q95LI5 22-117).
T3 sequence (looked up): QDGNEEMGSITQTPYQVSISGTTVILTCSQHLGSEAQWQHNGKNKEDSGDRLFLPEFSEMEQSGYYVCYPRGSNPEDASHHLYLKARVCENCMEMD
The assay is described as above.

Assay [6] concerns the target T4, human DLL3 (purchased from Kaixia, Cat. No DLL-HM103) (human, UniProt Q9NYJ7 27-492, limits assumed).
T4 construct: Bought recombinant protein; also called human DLL3 protein
T4 sequence (looked up): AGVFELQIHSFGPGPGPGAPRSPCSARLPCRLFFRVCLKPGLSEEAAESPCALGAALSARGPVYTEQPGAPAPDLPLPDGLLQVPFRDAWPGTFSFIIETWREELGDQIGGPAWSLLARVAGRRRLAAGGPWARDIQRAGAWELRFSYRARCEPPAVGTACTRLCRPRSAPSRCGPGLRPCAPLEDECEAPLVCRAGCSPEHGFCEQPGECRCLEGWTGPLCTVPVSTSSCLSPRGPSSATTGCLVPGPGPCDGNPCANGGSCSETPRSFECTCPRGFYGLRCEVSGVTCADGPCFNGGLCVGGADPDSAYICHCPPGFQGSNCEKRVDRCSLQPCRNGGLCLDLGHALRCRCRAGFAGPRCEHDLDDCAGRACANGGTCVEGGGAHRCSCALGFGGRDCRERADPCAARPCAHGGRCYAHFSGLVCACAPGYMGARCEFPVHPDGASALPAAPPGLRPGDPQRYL
Briefly: SPR (Biacore 8K), bispecific captured by anti-human Fc on CM5, DLL3 as analyte, 1:1 Langmuir fit.

Assay [7] has as its target T5, cynomolgus DLL3 (purchased from Kaixia, Cat. No. DLL-RM103) (cynomolgus, UniProt A0A2K5WSR1 27-490).
T5 construct: Bought recombinant protein
T5 sequence: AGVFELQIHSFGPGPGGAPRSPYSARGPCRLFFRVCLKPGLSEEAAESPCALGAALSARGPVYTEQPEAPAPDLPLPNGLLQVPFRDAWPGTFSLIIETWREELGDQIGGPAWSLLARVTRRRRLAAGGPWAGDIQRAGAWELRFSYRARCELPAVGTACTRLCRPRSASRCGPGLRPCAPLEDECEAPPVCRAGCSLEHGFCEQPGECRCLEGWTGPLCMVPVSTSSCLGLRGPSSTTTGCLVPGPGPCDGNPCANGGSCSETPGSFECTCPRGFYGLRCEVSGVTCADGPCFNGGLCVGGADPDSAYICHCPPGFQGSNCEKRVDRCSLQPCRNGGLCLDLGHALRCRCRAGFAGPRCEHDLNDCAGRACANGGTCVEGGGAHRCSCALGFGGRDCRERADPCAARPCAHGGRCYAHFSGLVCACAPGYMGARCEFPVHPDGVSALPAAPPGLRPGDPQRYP
The assay is described as above.

Sequence of human CD3 (purchased from Acro, Cat. No. CDD-H52W1) (P07766 23-126): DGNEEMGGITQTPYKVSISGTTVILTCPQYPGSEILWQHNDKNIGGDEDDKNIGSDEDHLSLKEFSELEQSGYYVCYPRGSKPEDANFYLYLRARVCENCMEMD

B1: Bispecific antibody 2 (bispecific antibody, IgG1)
heavy: not shown
chain: DKTHTCPPCPAPEAAGGPSVFLFPPKPKDTLMISRTPEVTCVVVDVSHEDPEVKFNWYVDGVEVHNAKTKPREEQYNSTYRVVSVLTVLHQDWLNGKEYKCKVSNKALPAPIEKTISKAKGQPREPQVCTLPPSRDELTKNQVSLSCAVKGFYPSDIAVEWESNGQPENNYKTTPPVLDSDGSFFLVSKLTVDKSRWQQGNVFSCSVMHEALHNRYTQKSLSLSPGK
light: EIVLTQSPATLSLSPGERATLSCRASQSINNNLHWYQQKPGQAPRLLIKYVSQSISGIPARFSGSGSGTDFTLTISSLEPEDFAVYYCQQTNAWPLTFGGGTKLEIKRTVAAPSVFIFPPSDEQLKSGTASVVCLLNNFYPREAKVQWKVDNALQSGNSQESVTEQDSKDSTYSLSSTLTLSKADYEKHKVYACEVTHQGLSSPVTKSFNRGEC
notes: Knob heavy chain: DLL3 VH-CH1-(G4S)3-CD3 scFv-EPKSS-IgG1 Fc (S354C, T366W, L234A/L235A); Hole chain: Fc only (Y349C, T366S, L368A, Y407V, H435R); Light chain: that of H2-39E2D11-NA; also called anti-CD3-DLL3 bispecific antibody
With B1, the “TDCC EC50 (nM), NCI-H82 cell line” value in assay [1] came to 80.2 nM. Also, in assay [1], the “TDCC EC50 (nM), SHP-77 cell line” value was found to be 136 nM. Also, the EC50 in assay [2] came to 3.11 nM; in assay [3] it was 57.9 nM. Moreover, the Kd is 9.09 nM in assay [4], 11.1 nM in assay [5], 0.647 nM in assay [6] and 0.887 nM in assay [7]. In addition, the koff turned out to be 0.00414 s⁻¹ in assay [4], 0.00405 s⁻¹ in assay [5], 7.92e-05 s⁻¹ in assay [6] and 8.6e-05 s⁻¹ in assay [7]. Also, the values for the kon in assay [6] and in assay [7] were 122000 M⁻¹ s⁻¹ and 97000 M⁻¹ s⁻¹, respectively.

The record behind these values is patent publication US20250136680A1 (SHANGHAI QILU PHARMACEUTICAL RESEARCH AND DEVELOPMENT CENTRE, published 2025).
